# Patent US20230212319A1, “NOVEL ANTIGEN BINDING DOMAINS AND SYNTHETIC ANTIGEN RECEPTORS INCORPORATING THE SAME” (University of Southern California, priority 2020, published 2023)
# B1: 21989 (protein)
# chain: MALPVTALLLPLALLLHAARPQVQLVESGGGLVQPGGSLRLSCAASGFTFTNHAMSWVRQAPGKGLELVSSISGNGRTTYYADSVKGRFTISRDISKNTLDLQMNSLRAEDTAVYYCAKDGGETLVDSRGQGTLVTVSSLEDLKNVFPPEVAVFEPSEAEISHTQKATLVCLATGFYPDHVELSWWVNGKEVHSGVCTDPQPLKEQPALNDSRYCLSSRLRVSATFWQNPRNHFRCQVQFYGLSENDEWTQDRAKPVTQIVSAEAWGRADCGFTSESYQQGVLSATILYEILLGKATLYAVLVSALVLMAMVKRKDSRGRAKRSGSGATNFSLLKQAGDVEENPGPTSMDWIWRILFLVGAATGAHSFEEVQLLESGGGLVQPGGSLRLSCAASGFTFSSYAMSWVRQAPGKGLEWVSSISGSGDYIYYADSVKGRFTISRDISKNTLYLQMNSLRAEDTAVYYCAKEGTGANSSLADYRGQGTLVTVSSTRIQNPDPAVYQLRDSKSSDKSVCLFTDFDSQTNVSQSKDSDVYITDKCVLDMRSMDFKSNSAVAWSNKSDFACANAFNNSIIPEDTFFPSPESSCDVKLVEKSFETDTNLNFQNLSVIGFRILLLKVAGFNLLMTLRLWSSRAKRSGSGVKQTLNFDLLKLAGDVESNPGPSRGHMTEYKPTVRLATRDDVPRAVRTLAAAFADYPATRHTVDPDRHIERVTELQELFLTRVGLDIGKVWVADDGAAVAVWTTPESVEAGAVFAEIGPRMAELSGSRLAAQQQMEGLLAPHRPKEPAWFLATVGVSPDHQGKGLGSAVVLPGVEAAERAGVPAFLETSAPRNLPFYERLGFTVTADVEVPEGPRTWCMTRKPGA
# B2: 22016 (protein)
# chain: MDWIWRILFLVGAATGAHSQLQLQESGPGLVKPSETLSLTCTVSGGSVSSSSYYWGWIRQPPGKRLELIGSIYYGGSTYFNPSLKTRVTISVDTSKNQFSLKLSSVTAADTAVYYCAGGDTYGPVGQWPSDYRGQGTLVTVSSLEDLKNVFPPEVAVFEPSEAEISHTQKATLVCLATGFYPDHVELSWWVNGKEVHSGVCTDPQPLKEQPALNDSRYCLSSRLRVSATFWQNPRNHFRCQVQFYGLSENDEWTQDRAKPVTQIVSAEAWGRADCGFTSESYQQGVLSATILYEILLGKATLYAVLVSALVLMAMVKRKDSRGRAKRSGSGATNFSLLKQAGDVEENPGPTSMDWIWRILFLVGAATGAHSFEQVQLVESGGGLVQPGGSLRLSCAASGFTFTNHAMSWVRQAPGKGLELVSSISGNGRTTYYADSVKGRFTISRDISKNTLDLQMNSLRAEDTAVYYCAKDGGETLVDSRGQGTLVTVSSTRIQNPDPAVYQLRDSKSSDKSVCLFTDFDSQTNVSQSKDSDVYITDKCVLDMRSMDFKSNSAVAWSNKSDFACANAFNNSIIPEDTFFPSPESSCDVKLVEKSFETDTNLNFQNLSVIGFRILLLKVAGFNLLMTLRLWSSRAKRSGSGVKQTLNFDLLKLAGDVESNPGPSRGHMTEYKPTVRLATRDDVPRAVRTLAAAFADYPATRHTVDPDRHIERVTELQELFLTRVGLDIGKVWVADDGAAVAVWTTPESVEAGAVFAEIGPRMAELSGSRLAAQQQMEGLLAPHRPKEPAWFLATVGVSPDHQGKGLGSAVVLPGVEAAERAGVPAFLETSAPRNLPFYERLGFTVTADVEVPEGPRTWCMTRKPGA
# B3: 22062 (protein)
# chain: MALPVTALLLPLALLLHAARPQVQLVESGGGLVQPGGSLRLSCAASGFTFTNHAMSWVRQAPGKGLELVSSISGNGRTTYYADSVKGRFTISRDISKNTLDLQMNSLRAEDTAVYYCAKDGGETLVDSRGQGTLVTVSSLEVAALEREDLKNVFPPEVAVFEPSEAEISHTQKATLVCLATGFYPDHVELSWWVNGKEVHSGVCTDPQPLKEQPALNDSRYCLSSRLRVSATFWQNPRNHFRCQVQFYGLSENDEWTQDRAKPVTQIVSAEAWGRADCGFTSESYQQGVLSATILYEILLGKATLYAVLVSALVLMAMVKRKDSRGRAKRSGSGATNFSLLKQAGDVEENPGPTSMDWIWRILFLVGAATGAHSFEEVQLLESGGGLVQPGGSLRLSCAASGFTFSSYAMSWVRQAPGKGLEWVSSISGSGDYIYYADSVKGRFTISRDISKNTLYLQMNSLRAEDTAVYYCAKEGTGANSSLADYRGQGTLVTVSSTRIQNPDPAVYQLRDSKSSDKSVCLFTDFDSQTNVSQSKDSDVYITDKCVLDMRSMDFKSNSAVAWSNKSDFACANAFNNSIIPEDTFFPSPESSCDVKLVEKSFETDTNLNFQNLSVIGFRILLLKVAGFNLLMTLRLWSSRAKRSGSGVKQTLNFDLLKLAGDVESNPGPSRGHMTEYKPTVRLATRDDVPRAVRTLAAAFADYPATRHTVDPDRHIERVTELQELFLTRVGLDIGKVWVADDGAAVAVWTTPESVEAGAVFAEIGPRMAELSGSRLAAQQQMEGLLAPHRPKEPAWFLATVGVSPDHQGKGLGSAVVLPGVEAAERAGVPAFLETSAPRNLPFYERLGFTVTADVEVPEGPRTWCMTRKPGA
# B4: 21988 (protein)
# chain: MALPVTALLLPLALLLHAARPEVQLLESGGGLVQPGGSLRLSCAASGFTFSSYAMSWVRQAPGKGLEWVSSISGSGDYIYYADSVKGRFTISRDISKNTLYLQMNSLRAEDTAVYYCAKEGTGANSSLADYRGQGTLVTVSSLEDLKNVFPPEVAVFEPSEAEISHTQKATLVCLATGFYPDHVELSWWVNGKEVHSGVCTDPQPLKEQPALNDSRYCLSSRLRVSATFWQNPRNHFRCQVQFYGLSENDEWTQDRAKPVTQIVSAEAWGRADCGFTSESYQQGVLSATILYEILLGKATLYAVLVSALVLMAMVKRKDSRGRAKRSGSGATNFSLLKQAGDVEENPGPTSMDWIWRILFLVGAATGAHSFEVQLLESGGGLIQPGGSLRLSCAASGFTFSSHAMTWVRQAPGKGLEWVSAISGSGDYTHYADSVKGRFTISRDNSKNTVYLQMNSLRAEDSAVYYCAKDEDGGSLLGHRGQGTLVTVSSTRIQNPDPAVYQLRDSKSSDKSVCLFTDFDSQTNVSQSKDSDVYITDKCVLDMRSMDFKSNSAVAWSNKSDFACANAFNNSIIPEDTFFPSPESSCDVKLVEKSFETDTNLNFQNLSVIGFRILLLKVAGFNLLMTLRLWSSRAKRSGSGVKQTLNFDLLKLAGDVESNPGPSRGHMTEYKPTVRLATRDDVPRAVRTLAAAFADYPATRHTVDPDRHIERVTELQELFLTRVGLDIGKVWVADDGAAVAVWTTPESVEAGAVFAEIGPRMAELSGSRLAAQQQMEGLLAPHRPKEPAWFLATVGVSPDHQGKGLGSAVVLPGVEAAERAGVPAFLETSAPRNLPFYERLGFTVTADVEVPEGPRTWCMTRKPGA
# B5: 22061 (protein)
# chain: MALPVTALLLPLALLLHAARPQVQLVESGGGLVQPGGSLRLSCAASGFTFTNHAMSWVRQAPGKGLELVSSISGNGRTTYYADSVKGRFTISRDISKNTLDLQMNSLRAEDTAVYYCAKDGGETLVDSRGQGTLVTVSSLEGSGGGGSGGGGSGEDLKNVFPPEVAVFEPSEAEISHTQKATLVCLATGFYPDHVELSWWVNGKEVHSGVCTDPQPLKEQPALNDSRYCLSSRLRVSATFWQNPRNHFRCQVQFYGLSENDEWTQDRAKPVTQIVSAEAWGRADCGFTSESYQQGVLSATILYEILLGKATLYAVLVSALVLMAMVKRKDSRGRAKRSGSGATNFSLLKQAGDVEENPGPTSMDWIWRILFLVGAATGAHSFEEVQLLESGGGLVQPGGSLRLSCAASGFTFSSYAMSWVRQAPGKGLEWVSSISGSGDYIYYADSVKGRFTISRDISKNTLYLQMNSLRAEDTAVYYCAKEGTGANSSLADYRGQGTLVTVSSTRIQNPDPAVYQLRDSKSSDKSVCLFTDFDSQTNVSQSKDSDVYITDKCVLDMRSMDFKSNSAVAWSNKSDFACANAFNNSIIPEDTFFPSPESSCDVKLVEKSFETDTNLNFQNLSVIGFRILLLKVAGFNLLMTLRLWSSRAKRSGSGVKQTLNFDLLKLAGDVESNPGPSRGHMTEYKPTVRLATRDDVPRAVRTLAAAFADYPATRHTVDPDRHIERVTELQELFLTRVGLDIGKVWVADDGAAVAVWTTPESVEAGAVFAEIGPRMAELSGSRLAAQQQMEGLLAPHRPKEPAWFLATVGVSPDHQGKGLGSAVVLPGVEAAERAGVPAFLETSAPRNLPFYERLGFTVTADVEVPEGPRTWCMTRKPGA
# System: L363 cells
# Experiment: JNG assay, co-culture with L363 cells
# Format: cell-based
# Conditions: co-culture with L363
# Protocol: Cellular supernatant is collected and assayed for the induction of cytokines (e.g., IL2).
# JNG (Jurkat cells expressing EGFP under an NFAT promoter) were infected with lentiviral vectors encoding different single chain and multi-chain SARs by spinfection in the presence of 8 µg/ml of Polybrene® (Sigma, Catalog no. H9268). The Jurkat-NFAT-GFP cells are engineered in such a way that the IL-2 promoter, which carries NFAT binding sites, is cloned upstream of the GFP gene. These cells have been used to study signaling via TCR and CAR. The different SARs were stably expressed in Jurkat NFAT-GFP cells by lentiviral mediated gene transfer, followed by selection with puromycin or blasticidin. No drug selection was used in case the construct lacked an antibiotic resistance gene. The SAR-expressing Jurkat-NFAT-GFP cells were cocultured with the target cells at E:T ratio of approximately 1:2 for approximately 4 hours to 18 hours. When the interaction between SIRs and their target antigen results in activation of the NFAT pathway, GFP expression is induced. […] GFP expression was monitored by FACS analysis. The Jurkat-NFAT-GFP (parental) cells were used as control. The structure of different constructs can be determined based on their names. […] The sequence of the other constructs in the table can be similarly determined from their names and by referring to the different Tables of this disclosure that provide the names and SEQ ID NO of the different modules. Alternatively, the composition and modular architecture of the different SAR constructs can be determined from their sequences by bioinformatics tools, including using nucleic acid and amino acids homology searches. A SAR is considered positive in the assay in case the SAR expressing Jurkat-NFAT-GFP cells show greater % GFP positive cells when cultured with the target cell line as compared to parental Jurkat-NFAT-GFP cells. […] In general, the number +/-, +, 2+, 3+, 4+, 5+ refer to approximately 5%, 10%, 20%, 30%, 40% and 50% GFP positive cells. The % of GFP induction in the above assay is dependent not only the relative strength of the SAR but also, among other factors, on the relative level of expression of the SAR in the JNG cells and the relative level of expression of the target antigen in the target cell line. To control for the difference in gene transduction efficiency of the different SAR constructs, the experiment was conducted with JNG cells transduced with SAR constructs co-expressing a drug resistance gene (e.g., puromycin or PAC) followed by drug selection to generate a stable population of SAR-expressing cells. It is to be noted that the drug resistance gene (e.g., PAC) in the SAR constructs is optional and in vivo studies were conducted with SAR constructs lacking the PAC gene.
row,Molecule,NFAT-GFP ASSAY: L363
1,B1,"+ (refer to approximately 5%, 10%, 20%, 30%, 40% and 50% GFP positive cells)"
2,B2,"+/- (refer to approximately 5%, 10%, 20%, 30%, 40% and 50% GFP positive cells)"
3,B3,"L363 (+/-) (refer to approximately 5%, 10%, 20%, 30%, 40% and 50% GFP positive cells)"
4,B4,"+ (refer to approximately 5%, 10%, 20%, 30%, 40% and 50% GFP positive cells)"
5,B5,"L363 (2+) (refer to approximately 5%, 10%, 20%, 30%, 40% and 50% GFP positive cells)"
